Reference: publication PMC5976663, “Mapping of Adenovirus of serotype 3 fibre interaction to desmoglein 2 revealed a novel ‘non-classical’ mechanism of viral receptor engagement” (Scientific Reports, 2018)

B1: DSG2 EC2-3 after MBP removal (digested DSG2 EC2-3, bacterial) (domain or fragment, human, UniProt Q14126 149-386, looked up)
chain: VLDINDNEPVFTQDVFVGSVEELSAAHTLVMKINATDADEPNTLNSKISYRIVSLEPAYPPVFYLNKDTGEIYTTSVTLDREEHSSYTLTVEARDGNGEVTDKPVKQAQVQIRILDVNDNIPVVENKVLEGMVEENQVNVEVTRIKVFDADEIGSDNWLANFTFASGNEGGYFHIETDAQTNEGIVTLIKEVDYEEMKNLDFSVIVANKAAFHKSIRSKYKPTPIPIKVKVKNVKEGI
notes: Theoretical mass 27.8 kDa after TEV cleavage; not glycosylated (bacterial); also called MBP-free EC2-3; source: E. coli Rosetta(DE3)pLysS, co-expressed with His-Ad3K; co-purified (His GraviTrap), TEV-cleaved, second His GraviTrap, Superdex 200; not shown: MBP, N-terminal, cleaved
B2: N-terminal His-tagged recombinant Ad3 fibre knob (His-Ad3K) (domain or fragment)
chain: NSIALKNNTLWTGPKPEANCIIEYGKQNPDSKLTLILVKNGGIVNGYVTLMGASDYVNTLFKNKNVSINVELYFDATGHILPDSSSLKTDLELKYKQTADFSARGFMPSTTAYPFVLPNAGTHNENYIFGQCYYKASDGALFPLEVTVMLNKRLPDSRTSYVMTFLWSLNAGLAPETTQATLITSPFTFSYIREDD
notes: human adenovirus serotype 3 (HAd3) fibre protein, knob, Asn124 to Asp319 of the full-length protein, GenBank ABB17809.1; The printed GenBank entry holds; also called HAd3 fibre knob; trimeric knob; source: E. coli Rosetta(DE3)pLysS, pETDuet-1; purified (His GraviTrap, Superdex 200); also co-expressed with MBP-DSG2 constructs, in lysate; not shown: His6, N-terminal, kept

Columns and labels:
[1] = molecular target: B2; test: AUC; sedimentation velocity (headed SE-AUC), 42,000 rpm, 20 °C, 3 mM CaCl2, 10 mM Tris pH 8.0, 150 mM NaCl; c(s) by SedFit; co-purified MBP-free complex, and His-Ad3K alone; two concentrations; conditions: both partners purified
[2] = molecular target: B2; test: SEC-MALS; 50 uL at 1 mg/mL on Superdex 200 Increase 10/300 GL, 150 mM NaCl, 3 mM CaCl2, 10 mM Tris-Cl pH 8.0, 0.5 mL/min; co-expressed and co-purified MBP-free complex, and His-Ad3K alone; conditions: both partners purified
[3] = molecular target: the molecule itself; test: as above

Row | Binder | stoichiometry N [1] | stoichiometry N [2] | stoichiometry N [3]
1 | B1 | 1 receptor per trimeric knob | 1 DSG2 EC2-3 per His-Ad3K trimer | –
2 | B2 | – | – | 3
